Values belong to the molecule of their own block, whether it stands above or below them.
What was measured:
Test in all cases: SPR; BIAcore 3000; BMP2 (350 RU) or BMP12 (1000 RU) amine-coupled on CM5 chips; soluble RGM injected at 0.1-100 nM, 30 uL/min, 500 s, 25°C; HBS-EP pH 7.4 (0.15 M NaCl); global analysis with BIAevaluation 3.2; double referencing
[1] = molecular target: Human BMP12 (bone morphogenetic protein 12) (human) (UniProt Q7Z4P5)
[2] = molecular target: Human BMP2 (bone morphogenetic protein 2) (human) (UniProt P12643)
Human BMP2 (bone morphogenetic protein 2) (human), sequence (P12643 283-396): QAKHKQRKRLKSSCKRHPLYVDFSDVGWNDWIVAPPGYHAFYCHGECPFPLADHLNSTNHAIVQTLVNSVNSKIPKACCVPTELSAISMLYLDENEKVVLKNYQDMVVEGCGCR

[3] = molecular target: T1, Human BMP2 (bone morphogenetic protein 2) (human, UniProt P12643 283-396); settings: both partners purified
T1 construct: bone morphogenetic protein 2, human; purified recombinant protein; also called recombinant human BMP2; source: produced and purified as previously described [37]
T1 sequence (P12643 283-396): as above

[4] = molecular target: T2, Human BMP12 (bone morphogenetic protein 12) (human, UniProt Q7Z4P5 322-450); settings: both partners purified
T2 construct: bone morphogenetic protein 12 (GDF7), human; the dimer peak from size exclusion was used; also called recombinant human BMP12; source: E. coli, purified (SP-Sepharose cation exchange, size exclusion; dimer peak)
T2 sequence (looked up): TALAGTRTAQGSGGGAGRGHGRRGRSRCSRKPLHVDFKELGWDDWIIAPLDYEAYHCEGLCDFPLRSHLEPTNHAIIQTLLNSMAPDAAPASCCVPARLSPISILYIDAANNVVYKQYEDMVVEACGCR

Kd [1]: 2.06 nM
koff [1]: 0.000118 s⁻¹
kon [1]: 56900 M⁻¹ s⁻¹
Kd [2]: 5.43 nM
koff [2]: 0.000256 s⁻¹
kon [2]: 47200 M⁻¹ s⁻¹
Molecule: RGMb-Fc (ectodomain of RGMb fused to the Fc portion of human IgG) (from UniProt Q6NW40 46-413) (Fc fusion)

Kd [1]: 1.22 nM
koff [1]: 9.22e-05 s⁻¹
kon [1]: 75600 M⁻¹ s⁻¹
Kd [2]: 4.22 nM
koff [2]: 0.000363 s⁻¹
kon [2]: 86100 M⁻¹ s⁻¹
Molecule: RGMc-Fc (ectodomain of RGMc fused to the Fc portion of human IgG) (from UniProt Q6ZVN8 36-400) (Fc fusion)

Kd [3]: 2.46 nM
koff [3]: 0.000364 s⁻¹
kon [3]: 148000 M⁻¹ s⁻¹
Kd [4]: 1.41 nM
koff [4]: 0.000179 s⁻¹
kon [4]: 127000 M⁻¹ s⁻¹
B1: RGMa-Fc (ectodomain of RGMa fused to the Fc portion of human IgG) (Fc fusion)
chain: CKILKCNSEFWSATSGSHAPASDDTPEFCAALRSYALCTRRTARTCRGDLAYHSAVHGIEDLMSQHNCSKDGPTSQPRLRTLPPAGDSQERSDSPEICHYEKSFHKHSATPNYTHCGLFGDPHLRTFTDRFQTCKVQGAWPLIDNNYLNVQVTNTPVLPGSAATATSKLTIIFKNFQECVDQKVYQAEMDELPAAFVDGSKNGGDKHGANSLKITEKVSGQHVEIQAKYIGTTIVVRQVGRYLTFAVRMPEEVVNAVEDWDSQGLYLCLRGCPLNQQIDFQAFHTNAEGTGARRLAAASPAPTAPETFPYETAVAKCKEKLPVEDLYYQACVFDLLTTGDVNFTLAAYYALEDVKMLHSNKDKLHLYERTRDLPGRA

From paper PMC1933414, “Role of RGM coreceptors in bone morphogenetic protein signaling” (Journal of Molecular Signaling, 2007)
